# T1: Hop2-R176A–Mnd1 mutant complex (mouse, UniProt O35047 1-217; Q8K396 1-205, R176A)
# T1 sequence 1: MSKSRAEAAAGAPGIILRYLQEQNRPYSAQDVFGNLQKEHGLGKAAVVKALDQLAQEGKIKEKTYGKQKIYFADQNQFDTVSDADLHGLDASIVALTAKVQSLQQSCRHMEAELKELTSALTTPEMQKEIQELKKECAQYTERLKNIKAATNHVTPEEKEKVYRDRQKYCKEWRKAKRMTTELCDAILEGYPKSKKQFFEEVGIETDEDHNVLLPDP
# T1 sequence 2: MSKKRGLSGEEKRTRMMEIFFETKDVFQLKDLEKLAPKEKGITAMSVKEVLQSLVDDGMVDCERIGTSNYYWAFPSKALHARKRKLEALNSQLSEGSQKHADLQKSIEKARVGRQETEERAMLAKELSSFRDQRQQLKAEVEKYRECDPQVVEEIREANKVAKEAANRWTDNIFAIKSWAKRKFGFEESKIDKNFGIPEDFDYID
# Molecular target: T1, Hop2-R176A–Mnd1 mutant complex
# Test: pull-down
binder,measurement,value
Human DMC1 (natural protein) MKEDQVVAEEPGFQDEEESLFQDIDLLQKHGINVADIKKLKSVGICTIKGIQMTTRRALCNVKGLSEAKVDKIKEAANKLIEPGFLTAFEYSEKRKMVFHITTGSQEFDKLLGGGIESMAITEAFGEFRTGKTQLSHTLCVTAQLPGAGGYPGGKIIFIDTENTFRPDRLRDIADRFNVDHDAVLDNVLYARAYTSEHQMELLDYVAAKFHEEAGIFKLLIIDSIMALFRVDFSGRGELAERQQKLAQMLSRLQKISEEYNVAVFVTNQMTADPGATMTFQADPKKPIGGHILAHASTTRISLRKGRGELRIAKIYDSPEMPENEATFAITAGGIGDAKE,binding result,binds
